Test results: patent publication US20210198368A1 (Novartis, published 2021)

Assays:
human CLL-1 Fc = target: T1, human CLL-1 Fc (human, UniProt Q5QGZ9 65-265, limits assumed); assay: SPR (Biacore T200), human CLL-1 Fc captured on an anti-Fc CM5 chip, scFv as analyte, 1:1 binding fit
T1 construct: Captured at 120 RU on an anti-Fc CM5 chip for Biacore; not shown: Fc part of the fusion (captured by an anti-Fc / anti-huFc antibody)
T1 sequence (looked up): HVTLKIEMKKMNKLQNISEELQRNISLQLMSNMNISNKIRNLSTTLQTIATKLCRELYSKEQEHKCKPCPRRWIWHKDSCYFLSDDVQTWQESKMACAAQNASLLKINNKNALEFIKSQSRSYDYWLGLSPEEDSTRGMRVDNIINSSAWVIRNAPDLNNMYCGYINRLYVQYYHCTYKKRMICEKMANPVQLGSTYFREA
Experimental: Next, the affinity for human CLL-1 of a representative number of anti-CLL-1 scFvs was tested by Biacore. Briefly, anti-Fc antibody (Jackson ImmunoReasearch, catalog #109-005-098) was immobilized to a CM5 sensor chip via amine coupling, and human CLL-1 Fc was then captured at a density of 120 RU. ScFv samples were serial diluted 3-fold and injected over the chip at a constant flow rate. Association and dissociation rates of the protein complex were monitored for 270 s and 400 s, respectively. Double referencing was performed against an anti-huFc coated flow cell and a buffer blank and the data was fit using a 1:1 Langmuir or steady state affinity model with the Biacore T200 evaluation software. Binding of clones CLL-1-6, CLL-1-8, CLL-1-9, CLL-1-10, and CLL1-13 to human CLL-1 was confirmed.

human CLL-1 = target: T2, human CLL-1 (human, UniProt Q5QGZ9 65-265, limits assumed); assay: ELISA and/or FACS of phage clones after panning on immobilized CLL-1
T2 construct: The construct is not described; also called C-type lectin-like molecule-1; MICL
T2 sequence (looked up): T1 sequence (looked up)

[1] = target: T3, human CLL1 expressed on cancer cell lines HL60 and U937 (human, UniProt Q5QGZ9 1-265); assay: cell-based or functional assay
T3 sequence (looked up): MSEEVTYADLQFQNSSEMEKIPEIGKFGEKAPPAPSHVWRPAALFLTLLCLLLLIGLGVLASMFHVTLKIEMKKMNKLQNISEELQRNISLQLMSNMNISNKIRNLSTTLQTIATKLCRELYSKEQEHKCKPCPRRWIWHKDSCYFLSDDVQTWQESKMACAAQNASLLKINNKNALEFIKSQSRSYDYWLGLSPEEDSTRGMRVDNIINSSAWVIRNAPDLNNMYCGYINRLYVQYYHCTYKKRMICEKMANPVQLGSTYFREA

B1: CLL-1-9 (scFv)
scFv: QVQLVQSGAEVKEPGASVKVSCKAPANTFSDHVMHWVRQAPGQRFEWMGYIHAANGGTHYSQKFQDRVTITRDTSANTVYMDLSSLRSEDTAVYYCARGGYNSDAFDIWGQGTMVTVSSGGGGSGGGGSGGGGSGGGGSDIVMTQSPSSVSASVGDRVTITCRASQDISSWLAWYQQKPGKAPKLLIYAASSLQSGVPSRFNGSGSGTDFTLTISSLQPEDFATYYCQQSYSTPLTFGGGTKVEIK
notes: Soluble scFv from HEK293F cells, purified on Ni-NTA; a tag is implied but not described; also called 146259
Kd (human CLL-1 Fc): 9.1 nM | koff (human CLL-1 Fc): 0.00128 s⁻¹ | kon (human CLL-1 Fc): 141000 M⁻¹ s⁻¹

B2: CLL-1-2 (scFv)
scFv: EVQLVESGGGVVQPGGSLRLSCAASGFTFDDYAMHWVRQAPGKGLEWVSLISGDGGSTYYADSVKGRFTISRDNSKNTLYLQMNSLRVEDTAVYYCARVFDSYYMDVWGKGTTVTVSSGGGGSGGGGSGSGGSEIVLTQSPLSLPVTPGQPASISCRSSQSLVYTDGNTYLNWFQQRPGQSPRRLIYKVSNRDSGVPDRFSGSGSDTDFTLKISRVEAEDVGIYYCMQGTHWSFTFGQGTRLEIK
notes: Human scFv from phage display; also called 139116
binding result (human CLL-1): binds

B3: CD3 × CLL1_12 (bispecific antibody)
chain 1: QVQLVQSGGGVVQPGRSLRLSCKASGYTFTRYTMHWVRQAPGKGLEWIGYINPSRGYTNYNQKVKDRFTISRDNSKNTAFLQMDSLRPEDTGVYFCARYYDDHYSLDYWGQGTPVTVSSGGGGSGGGKSKKGGSGGGGSDIQMTQSPSSLSASVGDRVTITCSASSSVSYMNWYQQTPGKAPKRWIYDTSKLASGVPSRFSGSGSGTDYTFTISSLQPEDIATYYCQQWSSNPFTFGQGTKLQITGGGGSDKTHTCPPCPAPELLGGPSVFLFPPKPKDTLMISRTPEVTCVVVAVSHEDPEVKFNWYVDGVEVHNAKTKPREEQYNSTYRVVSVLTVLHQDWLNGKEYKCKVSNKALAAPIEKTISKAKGQPREPQVCTLPPSRDELTKNQVSLSCAVKGFYPSDIAVEWESNGQPENNYKTTPPVLDSDGSFFLVSKLTVDKSRWQQGNVFSCSVMHEALHNHYTQKSLSLSPGK
chain 2: not shown
EC50 (nM), Killing HL60 (T-cell mediated killing of the CLL1-positive cancer cell line) [1]: 0.2 nM | EC50 (nM), NFAT U937 (T-cell activation, Jurkat NFAT luciferase reporter assay) [1]: 0.63 nM

B4: CD3 × CLL1_10 (bispecific antibody)
chain 1: B3 chain 1
chain 2: QVQLVQSGGGLVQPGGSLRLSCAASGFTFSSYSMNWVRQAPGKGLEWVSYISSSSSTIYYADSVKGRFTISRDNAKNSLYLQMNSLRAEDTAVYYCARDLSVRAIDAFDIWGQGTMVTVSSGGGGSGGGGSGGGGSGGGGSDIVLTQSPSSLSASVGDRVTITCQASQDISNYLNWYQQKPGKAPKLLIYDASNLETGVPSRFSGSGSGTDFTFTISSLQPEDFATYYCQQAYSTPFTFGPGTKVEIKGGGGSGSDKTHTCPPCPAPELLGGPSVFLFPPKPKDTLMISRTPEVTCVVVAVSHEDPEVKFNWYVDGVEVHNAKTKPREEQYNSTYRVVSVLTVLHQDWLNGKEYKCKVSNKALAAPIEKTISKAKGQPREPQVYTLPPCRDELTKNQVSLWCLVKGFYPSDIAVEWESNGQPENNYKTTPPVLDSDGSFFLYSKLTVDKSRWQQGNVFSCSVMHEALHNHYTQKSLSLSPGK
EC50 (nM), Killing HL60 (T-cell mediated killing of the CLL1-positive cancer cell line) [1]: 0.27 nM | EC50 (nM), NFAT U937 (T-cell activation, Jurkat NFAT luciferase reporter assay) [1]: 0.85 nM

B5: CD3 × CLL1_08 (bispecific antibody)
chain 1: B3 chain 1
chain 2: QVQLVESGGGLVQPGGSLRLSCAASGFTFSSYWMSWVRQAPGKGLEWVANINEDGSAKFYVDSVKGRFTISRDNAKNSLYLQMNSLRAEDTAVYFCARDLRSGRYWGQGTLVTVSSGGGGSGGGGSGGGGSEIVLTQSPGTLSLSPGGRATLSCRASQSISGSFLAWYQQKPGQAPRLLIYGASSRATGIPDRFSGSGSGTDFTLTISRLEPEDFAVYYCQQYGSSPPTFGLGTKLEIKGGGGSGSDKTHTCPPCPAPELLGGPSVFLFPPKPKDTLMISRTPEVTCVVVAVSHEDPEVKFNWYVDGVEVHNAKTKPREEQYNSTYRVVSVLTVLHQDWLNGKEYKCKVSNKALAAPIEKTISKAKGQPREPQVYTLPPCRDELTKNQVSLWCLVKGFYPSDIAVEWESNGQPENNYKTTPPVLDSDGSFFLYSKLTVDKSRWQQGNVFSCSVMHEALHNHYTQKSLSLSPGK
EC50 (nM), Killing HL60 (T-cell mediated killing of the CLL1-positive cancer cell line) [1]: 0.31 nM | EC50 (nM), NFAT U937 (T-cell activation, Jurkat NFAT luciferase reporter assay) [1]: 1.26 nM

B6: CLL-1-10 (scFv)
scFv: QVQLVQSGGGLVQPGGSLRLSCAASGFTFSSYSMNWVRQAPGKGLEWVSYISSSSSTIYYADSVKGRFTISRDNAKNSLYLQMNSLRAEDTAVYYCARDLSVRAIDAFDIWGQGTMVTVSSGGGGSGGGGSGGGGSGGGGSDIVLTQSPSSLSASVGDRVTITCQASQDISNYLNWYQQKPGKAPKLLIYDASNLETGVPSRFSGSGSGTDFTFTISSLQPEDFATYYCQQAYSTPFTFGPGTKVEIK
notes: Soluble scFv from HEK293F cells, purified on Ni-NTA; a tag is implied but not described; also called 146261
Kd (human CLL-1 Fc): 15 nM | koff (human CLL-1 Fc): 0.00214 s⁻¹ | kon (human CLL-1 Fc): 142000 M⁻¹ s⁻¹

B7: CLL-1-13 (scFv)
scFv: QVQLVQSGAEVKKSGASVKVSCKASGYPFTGYYIQWVRQAPGQGLEWMGWIDPNSGNTGYAQKFQGRVTMTRNTSISTAYMELSSLRSEDTAVYYCASDSYGYYYGMDVWGQGTLVTVSSGGGGSGGGGSGGGGSGGGGSDIQMTQSPSSLSASVGDRVTFTCRASQGISSALAWYQQKPGKPPKLLIYDASSLESGVPSRFSGSGSGTDFTLTISSLQPEDFATYYCQQFNNYPLTFGGGTKVEIK
notes: Soluble scFv from HEK293F cells, purified on Ni-NTA; a tag is implied but not described; also called 146264
Kd (human CLL-1 Fc): 46.1 nM | koff (human CLL-1 Fc): 0.00119 s⁻¹ | kon (human CLL-1 Fc): 25700 M⁻¹ s⁻¹

B8: CLL-1-1 (scFv)
scFv: EVQLQQSGAEVKKPGSSVKVSCKASGGTFSSYAISWVRQAPGQGLEWMGGIIPIFGTANYAQKFQGRVTITADESTSTAYMELSSLRSEDTAVYYCARDLEMATIMGGYWGQGTLVTVSSGGGGSGGGGSGGGGSQSALTQPASVSGSPGQSITISCTGTSSDVGGYNYVSWYQQHPGKAPKLMIYDVSNRPSGVSNRFSGSKSGNTASLTISGLQAEDEADYYCSSYTSSSTLDVVFGGGTKLTVL
notes: Human scFv from phage display (VH-linker-VL); For Biacore it was made as soluble scFv in HEK293F cells and purified on Ni-NTA beads; a tag is implied but not described; also called 139115
binding result (human CLL-1): binds
